Data on 2 proteins can be found in paper PMC9245612 (Proceedings of the National Academy of Sciences of the …, 2022).

Substrate in the series “purified protein”: Nc1ncnc2c1ncn2[C@@H]1O[C@H](COP(=O)(O)OP(=O)(O)OP(=O)(O)O)[C@@H](O)[C@H]1O
In words: purified protein. Particulars: co-substrate NAD+, 37 °C.

The series “SEC” concerns the molecule itself. Kind of series: SEC.

B1: human NADK2 mature protein (amino acids 47 to 442) (enzyme, UniProt Q4G0N4 47-442, looked up)
chain: LGQGQPRELAGCGSRADGGFRPSRVVVVAKTTRYEFEQQRYRYAELSEEDLKQLLALKGSSYSGLLERHHIHTKNVEHIIDSLRNEGIEVRLVKRREYDEETVRWADAVIAAGGDGTMLLAASKVLDRLKPVIGVNTDPERSEGHLCLPVRYTHSFPEALQKFYRGEFRWLWRQRIRLYLEGTGINPVPVDLHEQQLSLNQHNRALNIERAHDERSEASGPQLLPVRALNEVFIGESLSSRASYYEISVDDGPWEKQKSSGLNLCTGTGSKAWSFNINRVATQAVEDVLNIAKRQGNLSLPLNRELVEKVTNEYNESLLYSPEEPKILFSIREPIANRVFSSSRQRCFSSKVCVRSRCWDACMVVDGGTSFEFNDGAIASMMINKEDELRTVLLEQ
Turning to B1, the Km in the series “purified protein” is 2200 µM. For the same protein, in the series “SEC”, the “stoichiometry N” value was determined as 2.

B2: human cytosolic NADK, full-length (enzyme, UniProt O95544 1-446, looked up)
chain: MEMEQEKMTMNKELSPDAAAYCCSACHGDETWSYNHPIRGRAKSRSLSASPALGSTKEFRRTRSLHGPCPVTTFGPKACVLQNPQTIMHIQDPASQRLTWNKSPKSVLVIKKMRDASLLQPFKELCTHLMEENMIVYVEKKVLEDPAIASDESFGAVKKKFCTFREDYDDISNQIDFIICLGGDGTLLYASSLFQGSVPPVMAFHLGSLGFLTPFSFENFQSQVTQVIEGNAAVVLRSRLKVRVVKELRGKKTAVHNGLGENGSQAAGLDMDVGKQAMQYQVLNEVVIDRGPSSYLSNVDVYLDGHLITTVQGDGVIVSTPTGSTAYAAAAGASMIHPNVPAIMITPICPHSLSFRPIVVPAGVELKIMLSPEARNTAWVSFDGRKRQEIRHGDSISITTSCYPLPSICVRDPVSDWFESLAQCLHWNVRKKQAHFEEEEEEEEEG
Turning to B2, in “SEC”, the “stoichiometry N” value stood at 4.
